Results published in patent US7558625B2, “Combined micro-channel generation and iontophoresis for transdermal delivery of pharmaceutical agents” (TransPharma Medical Ltd., priority 2004, dated 2009).

Assay: Transdermal delivery of hGH by ViaDerm and iontophoresis in anesthetized pigs, plasma hGH
Type: in vivo
Parameters: average AUC: unit: ng×hr/ml
Procedure: ViaDerm applications were performed on 8 adjacent sites on the marginal ear of each of the pigs using 80 μm electrodes and 2 bursts.
2 groups of pigs (males, 10-15 kg, large white) were tested: • Group 1: SC (250 μg)—3 pigs (no. 3, 9 and 25). • Group 2: ViaDerm and then iontophoresis was applied 5 times, each iontophoresis patch contained 22.5 mg (22.5×5; total of 112.5 mg)—3 pigs (no. 19, 20 and 21). Results

[1] = pigs, ViaDerm and Iontophoresis group, 5 consecutive patches

“hGH: human growth hormone (Genotropin, Pharmacia and Upjohn)” gave a hGH plasma levels (SC 0.25 mg hGH, pig3, 0 h) of 0.14 ng/mL, a hGH plasma levels (SC 0.25 mg hGH, pig3, 1 h) of 6.40 ng/mL and a hGH plasma levels (SC 0.25 mg hGH, pig3, 2 h) of 10.57 ng/mL. For the same substance, the hGH plasma levels (SC 0.25 mg hGH, pig3, 3 h) was 6.02 ng/mL, the hGH plasma levels (SC 0.25 mg hGH, pig3, 4 h) was 5.39 ng/mL and the hGH plasma levels (SC 0.25 mg hGH, pig3, 5 h) was 2.57 ng/mL. The hGH plasma levels (SC 0.25 mg hGH, pig3, 6 h) was 3.35 ng/mL, the hGH plasma levels (SC 0.25 mg hGH, pig3, 7 h) was 2.40 ng/mL and the hGH plasma levels (SC 0.25 mg hGH, pig3, 8 h) was 2.00 ng/mL. The hGH plasma levels (SC 0.25 mg hGH, pig3, 9 h) was 1.48 ng/mL, the hGH plasma levels (SC 0.25 mg hGH, pig3, 10 h) was 1.18 ng/mL and the hGH plasma levels (SC 0.25 mg hGH, pig3, 11 h) was 1.49 ng/mL. For the same substance, the hGH plasma levels (SC 0.25 mg hGH, pig3, 12 h) was 1.75 ng/mL, the hGH plasma levels (SC 0.25 mg hGH, pig9, 0 h) was 0.08 ng/mL and the hGH plasma levels (SC 0.25 mg hGH, pig9, 1 h) was 22.96 ng/mL. The hGH plasma levels (SC 0.25 mg hGH, pig9, 2 h) was 18.06 ng/mL, the hGH plasma levels (SC 0.25 mg hGH, pig9, 3 h) was 15.88 ng/mL and the hGH plasma levels (SC 0.25 mg hGH, pig9, 4 h) was 12.39 ng/mL. It also gave a hGH plasma levels (SC 0.25 mg hGH, pig9, 5 h) of 9.85 ng/mL, a hGH plasma levels (SC 0.25 mg hGH, pig9, 6 h) of 6.53 ng/mL and a hGH plasma levels (SC 0.25 mg hGH, pig9, 7 h) of 6.31 ng/mL. For the same substance, the hGH plasma levels (SC 0.25 mg hGH, pig9, 8 h) was 4.19 ng/mL, the hGH plasma levels (SC 0.25 mg hGH, pig9, 9 h) was 2.58 ng/mL and the hGH plasma levels (SC 0.25 mg hGH, pig9, 10 h) was 1.83 ng/mL. The hGH plasma levels (SC 0.25 mg hGH, pig9, 11 h) was 1.25 ng/mL, the hGH plasma levels (SC 0.25 mg hGH, pig9, 12 h) was 0.88 ng/mL and the hGH plasma levels (SC 0.25 mg hGH, pig25, 0 h) was 0.10 ng/mL. The hGH plasma levels (SC 0.25 mg hGH, pig25, 1 h) was 38.06 ng/mL, the hGH plasma levels (SC 0.25 mg hGH, pig25, 2 h) was 31.00 ng/mL and the hGH plasma levels (SC 0.25 mg hGH, pig25, 3 h) was 16.32 ng/mL. The hGH plasma levels (SC 0.25 mg hGH, pig25, 4 h) was 13.40 ng/mL, the hGH plasma levels (SC 0.25 mg hGH, pig25, 5 h) was 8.69 ng/mL and the hGH plasma levels (SC 0.25 mg hGH, pig25, 6 h) was 6.66 ng/mL. It also gave a hGH plasma levels (SC 0.25 mg hGH, pig25, 7 h) of 3.89 ng/mL, a hGH plasma levels (SC 0.25 mg hGH, pig25, 8 h) of 2.76 ng/mL and a hGH plasma levels (SC 0.25 mg hGH, pig25, 9 h) of 1.67 ng/mL. For the same substance, the hGH plasma levels (SC 0.25 mg hGH, pig25, 10 h) was 1.19 ng/mL, the hGH plasma levels (SC 0.25 mg hGH, pig25, 11 h) was 1.09 ng/mL and the hGH plasma levels (SC 0.25 mg hGH, pig25, 12 h) was 0.78 ng/mL. The hGH plasma levels (SC 0.25 mg hGH, pigs, Average, 0 h) was 0.1 ng/mL, the hGH plasma levels (SC 0.25 mg hGH, pigs, Average, 1 h) was 22.5 ng/mL and the hGH plasma levels (SC 0.25 mg hGH, pigs, Average, 2 h) was 19.9 ng/mL. For the same substance, the hGH plasma levels (SC 0.25 mg hGH, pigs, Average, 3 h) was 12.7 ng/mL, the hGH plasma levels (SC 0.25 mg hGH, pigs, Average, 4 h) was 10.4 ng/mL and the hGH plasma levels (SC 0.25 mg hGH, pigs, Average, 5 h) was 7.0 ng/mL. It also gave a hGH plasma levels (SC 0.25 mg hGH, pigs, Average, 6 h) of 5.5 ng/mL, a hGH plasma levels (SC 0.25 mg hGH, pigs, Average, 7 h) of 4.2 ng/mL and a hGH plasma levels (SC 0.25 mg hGH, pigs, Average, 8 h) of 3.0 ng/mL. For the same substance, the hGH plasma levels (SC 0.25 mg hGH, pigs, Average, 9 h) was 1.9 ng/mL, the hGH plasma levels (SC 0.25 mg hGH, pigs, Average, 11 h) was 1.3 ng/mL and the hGH plasma levels (SC 0.25 mg hGH, pigs, Average, 12 h) was 1.1 ng/mL. For the same substance, the “average AUC” value (SC 250 μg, 3 pigs) was 90.3, the AUC (SC 250 μg, pig no. 3) was 44 ng·h/mL and the AUC (SC 250 μg, pig no. 9) was 102 ng·h/mL. For the same substance, the AUC (SC 250 μg, pig no. 25) was 125 ng·h/mL, the Amount delivered (SC 250 μg, pigs) was 250 µg and the “average AUC” value (ViaDerm, Ionto 22.5 mg × 5, 3 pigs) was 210.3. The AUC (ViaDerm, Ionto 22.5 mg × 5, pig no. 19) was 138 ng·h/mL, the AUC (ViaDerm, Ionto 22.5 mg × 5, pig no. 20) was 215 ng·h/mL and the AUC (ViaDerm, Ionto 22.5 mg × 5, pig no. 21) was 278 ng·h/mL. For the same substance, the Amount delivered (ViaDerm, Ionto 22.5 mg × 5, pigs) was 589 µg, the hGH plasma levels (ViaDerm, Iontoph. × 5 Total 112.5 mg hGH, pig19, 0 h) was 0.04 ng/mL and the hGH plasma levels (ViaDerm, Iontoph. × 5 Total 112.5 mg hGH, pig19, 1 h) was 8.39 ng/mL. The hGH plasma levels (ViaDerm, Iontoph. × 5 Total 112.5 mg hGH, pig19, 2 h) was 18.46 ng/mL, the hGH plasma levels (ViaDerm, Iontoph. × 5 Total 112.5 mg hGH, pig19, 3 h) was 24.50 ng/mL and the hGH plasma levels (ViaDerm, Iontoph. × 5 Total 112.5 mg hGH, pig19, 4 h) was 25.34 ng/mL. The hGH plasma levels (ViaDerm, Iontoph. × 5 Total 112.5 mg hGH, pig19, 5 h) was 25.27 ng/mL, the hGH plasma levels (ViaDerm, Iontoph. × 5 Total 112.5 mg hGH, pig19, 6 h) was 13.34 ng/mL and the hGH plasma levels (ViaDerm, Iontoph. × 5 Total 112.5 mg hGH, pig19, 7 h) was 9.63 ng/mL. The hGH plasma levels (ViaDerm, Iontoph. × 5 Total 112.5 mg hGH, pig19, 8 h) was 4.03 ng/mL, the hGH plasma levels (ViaDerm, Iontoph. × 5 Total 112.5 mg hGH, pig19, 9 h) was 4.08 ng/mL and the hGH plasma levels (ViaDerm, Iontoph. × 5 Total 112.5 mg hGH, pig19, 10 h) was 3.32 ng/mL. The hGH plasma levels (ViaDerm, Iontoph. × 5 Total 112.5 mg hGH, pig19, 11 h) was 1.42 ng/mL, the hGH plasma levels (ViaDerm, Iontoph. × 5 Total 112.5 mg hGH, pig19, 12 h) was 1.38 ng/mL and the hGH plasma levels (ViaDerm, Iontoph. × 5 Total 112.5 mg hGH, pig20, 0 h) was 0.06 ng/mL. The hGH plasma levels (ViaDerm, Iontoph. × 5 Total 112.5 mg hGH, pig20, 1 h) was 7.01 ng/mL, the hGH plasma levels (ViaDerm, Iontoph. × 5 Total 112.5 mg hGH, pig20, 2 h) was 22.45 ng/mL and the hGH plasma levels (ViaDerm, Iontoph. × 5 Total 112.5 mg hGH, pig20, 3 h) was 26.93 ng/mL. The hGH plasma levels (ViaDerm, Iontoph. × 5 Total 112.5 mg hGH, pig20, 4 h) was 31.04 ng/mL, the hGH plasma levels (ViaDerm, Iontoph. × 5 Total 112.5 mg hGH, pig20, 5 h) was 28.21 ng/mL and the hGH plasma levels (ViaDerm, Iontoph. × 5 Total 112.5 mg hGH, pig20, 6 h) was 22.09 ng/mL. For the same substance, the hGH plasma levels (ViaDerm, Iontoph. × 5 Total 112.5 mg hGH, pig20, 7 h) was 44.00 ng/mL, the hGH plasma levels (ViaDerm, Iontoph. × 5 Total 112.5 mg hGH, pig20, 8 h) was 10.69 ng/mL and the hGH plasma levels (ViaDerm, Iontoph. × 5 Total 112.5 mg hGH, pig20, 9 h) was 8.98 ng/mL. The hGH plasma levels (ViaDerm, Iontoph. × 5 Total 112.5 mg hGH, pig20, 10 h) was 6.49 ng/mL, the hGH plasma levels (ViaDerm, Iontoph. × 5 Total 112.5 mg hGH, pig20, 11 h) was 4.91 ng/mL and the hGH plasma levels (ViaDerm, Iontoph. × 5 Total 112.5 mg hGH, pig20, 12 h) was 5.01 ng/mL. It also gave a hGH plasma levels (ViaDerm, Iontoph. × 5 Total 112.5 mg hGH, pig21, 0 h) of 0.08 ng/mL, a hGH plasma levels (ViaDerm, Iontoph. × 5 Total 112.5 mg hGH, pig21, 1 h) of 2.68 ng/mL and a hGH plasma levels (ViaDerm, Iontoph. × 5 Total 112.5 mg hGH, pig21, 2 h) of 10.38 ng/mL. For the same substance, the hGH plasma levels (ViaDerm, Iontoph. × 5 Total 112.5 mg hGH, pig21, 3 h) was 24.52 ng/mL, the hGH plasma levels (ViaDerm, Iontoph. × 5 Total 112.5 mg hGH, pig21, 4 h) was 28.87 ng/mL and the hGH plasma levels (ViaDerm, Iontoph. × 5 Total 112.5 mg hGH, pig21, 5 h) was 44.93 ng/mL. It also gave a hGH plasma levels (ViaDerm, Iontoph. × 5 Total 112.5 mg hGH, pig21, 6 h) of 34.25 ng/mL, a hGH plasma levels (ViaDerm, Iontoph. × 5 Total 112.5 mg hGH, pig21, 7 h) of 33.54 ng/mL and a hGH plasma levels (ViaDerm, Iontoph. × 5 Total 112.5 mg hGH, pig21, 8 h) of 28.93 ng/mL. For the same substance, the hGH plasma levels (ViaDerm, Iontoph. × 5 Total 112.5 mg hGH, pig21, 9 h) was 24.89 ng/mL, the hGH plasma levels (ViaDerm, Iontoph. × 5 Total 112.5 mg hGH, pig21, 10 h) was 22.46 ng/mL and the hGH plasma levels (ViaDerm, Iontoph. × 5 Total 112.5 mg hGH, pig21, 11 h) was 17.86 ng/mL. The hGH plasma levels (ViaDerm, Iontoph. × 5 Total 112.5 mg hGH, pig21, 12 h) was 9.00 ng/mL, the hGH plasma levels (ViaDerm, Iontoph. × 5 Total 112.5 mg hGH, pigs, Average, 0 h) was 0.06 ng/mL and the hGH plasma levels (ViaDerm, Iontoph. × 5 Total 112.5 mg hGH, pigs, Average, 1 h) was 6.03 ng/mL. The hGH plasma levels (ViaDerm, Iontoph. × 5 Total 112.5 mg hGH, pigs, Average, 2 h) was 17.10 ng/mL, the hGH plasma levels (ViaDerm, Iontoph. × 5 Total 112.5 mg hGH, pigs, Average, 3 h) was 25.32 ng/mL and the hGH plasma levels (ViaDerm, Iontoph. × 5 Total 112.5 mg hGH, pigs, Average, 4 h) was 28.41 ng/mL. For the same substance, the hGH plasma levels (ViaDerm, Iontoph. × 5 Total 112.5 mg hGH, pigs, Average, 5 h) was 32.80 ng/mL, the hGH plasma levels (ViaDerm, Iontoph. × 5 Total 112.5 mg hGH, pigs, Average, 6 h) was 23.23 ng/mL and the hGH plasma levels (ViaDerm, Iontoph. × 5 Total 112.5 mg hGH, pigs, Average, 7 h) was 29.06 ng/mL. For the same substance, the hGH plasma levels (ViaDerm, Iontoph. × 5 Total 112.5 mg hGH, pigs, Average, 8 h) was 14.55 ng/mL, the hGH plasma levels (ViaDerm, Iontoph. × 5 Total 112.5 mg hGH, pigs, Average, 9 h) was 12.65 ng/mL and the hGH plasma levels (ViaDerm, Iontoph. × 5 Total 112.5 mg hGH, pigs, Average, 10 h) was 10.75 ng/mL. For the same substance, the hGH plasma levels (ViaDerm, Iontoph. × 5 Total 112.5 mg hGH, pigs, Average, 11 h) was 8.06 ng/mL, the hGH plasma levels (ViaDerm, Iontoph. × 5 Total 112.5 mg hGH, pigs, Average, 12 h) was 5.13 ng/mL and the “average AUC value” (pigs, SC group) was 90.3 ng·h/mL. The AUC [1] was 210.3 ng·h/mL, the Cmax [1] was 32.8 ng/mL and the Tmax [1] was 5 to 7 h. The “skin irritation at the drug and the reference electrode” value (pigs, ViaDerm and Iontophoresis treated group) was “no irritation was observed”.
